Patent US12281147
Each block holds one substance with its values, some of them ahead of it.

Key:
[1] = molecular target: wild-type human IL-21R (human) (UniProt Q9HBE5); experiment: AlphaSeq yeast mating assay, pH 6 media
[2] = molecular target: wild-type human IL-21R (human) (UniProt Q9HBE5); experiment: AlphaSeq yeast mating assay, pH 5 media
[3] = molecular target: wild-type human IL-21R (human) (UniProt Q9HBE5); experiment: AlphaSeq yeast mating assay, pH 7 media
[4] = molecular target: wild-type human IL-21R (human) (UniProt Q9HBE5); experiment: AlphaSeq yeast mating assay, unbuffered media
[5] = molecular target: mouse IL-21R, His-tagged (BLI antigen) (mouse) (UniProt Q9JHX3); experiment: BLI
[6] = molecular target: recombinant human IL-21R His tag (Acro Biosystems) (human) (UniProt Q9HBE5); experiment: BLI
[7] = molecular target: human interleukin 21 receptor (IL-21R) (human) (UniProt Q9HBE5); experiment: AlphaSeq yeast mating, unbuffered media
[8] = molecular target: human interleukin 21 receptor (IL-21R) (human) (UniProt Q9HBE5); experiment: AlphaSeq yeast mating, pH 6 media
[9] = molecular target: human interleukin 21 receptor (IL-21R) (human) (UniProt Q9HBE5); experiment: AlphaSeq yeast mating, pH 7 media
[10] = molecular target: human interleukin 21 receptor (IL-21R) (human) (UniProt Q9HBE5); experiment: AlphaSeq yeast mating, pH 5 media
[11] = molecular target: human interleukin 21 receptor (IL-21R) (human) (UniProt Q9HBE5); experiment: AlphaSeq yeast mating assay, pH 5 media
[12] = molecular target: human interleukin 21 receptor (IL-21R) (human) (UniProt Q9HBE5); experiment: AlphaSeq yeast mating assay, unbuffered media
[13] = molecular target: human interleukin 21 receptor (IL-21R) (human) (UniProt Q9HBE5); experiment: AlphaSeq yeast mating assay, pH 7 media

Substance: IL-21_Q48G (from UniProt Q9HBE4 32-152) (ligand)
Kd [1]: 0.016 µM
Kd [2]: 0.059 µM
Kd [3]: 0.039 µM
Kd [4]: 3.2 µM

Substance: IL-21_human_K106S Fc fusion protein (from UniProt Q9HBE4 30-162)
Kd [5]: 0.024 µM
Kd [6]: 0.00578 µM

Substance: IL-21_Q150R (from UniProt Q9HBE4 32-152) (ligand)
Kd [7]: 14 µM
Kd [8]: 0.05 µM
Kd [9]: 0.094 µM

Substance: IL-21_W73Q (from UniProt Q9HBE4 32-152) (ligand)
Kd [7]: 15 µM
Kd [8]: 0.088 µM
Kd [9]: 0.12 µM

Substance: IL-21_S99H (from UniProt Q9HBE4 32-152) (ligand)
Kd [7]: 60 µM
Kd [9]: 0.025 µM

Substance: IL-21_H118R (from UniProt Q9HBE4 32-152) (ligand)
Kd [7]: 11 µM
Kd [8]: 0.95 µM
Kd [10]: 20 µM
Kd [9]: 0.26 µM

Substance: IL-21_P107D (from UniProt Q9HBE4 32-152) (ligand)
Kd [11]: 0.06 µM
Kd [12]: 0.19 µM

Substance: IL-21_human_E72L Fc fusion protein (from UniProt Q9HBE4 30-162)
Kd [5]: 0.0123 µM

Substance: IL-21_K106T (from UniProt Q9HBE4 32-152) (ligand)
Kd [11]: 0.2 µM
Kd [12]: 0.21 µM

Substance: IL-21_P133I (from UniProt Q9HBE4 32-152) (ligand)
Kd [1]: 0.044 µM
Kd [3]: 0.11 µM

Substance: IL-21_K131V (from UniProt Q9HBE4 32-152) (ligand)
Kd [11]: 0.026 µM

Substance: IL-21_E72H (from UniProt Q9HBE4 32-152) (ligand)
Kd [1]: 0.011 µM
Kd [3]: 0.021 µM
Kd [4]: 3.4 µM

Substance: IL-21_N54P (from UniProt Q9HBE4 32-152) (ligand)
Kd [1]: 0.02 µM
Kd [2]: 0.089 µM
Kd [3]: 0.027 µM
Kd [4]: 5.4 µM

Substance: IL-21_human_I45H Fc fusion protein (from UniProt Q9HBE4 30-162)
Kd [5]: 0.124 µM
Kd [6]: 0.029 µM

Substance: IL-21_human_I37G Fc fusion protein (from UniProt Q9HBE4 30-162)
Kd [5]: 0.159 µM

Substance: IL-21_H118K (from UniProt Q9HBE4 32-152) (ligand)
Kd [1]: 3.1 µM
Kd [2]: 99 µM
Kd [3]: 0.37 µM

Substance: IL-21_I95T (from UniProt Q9HBE4 32-152) (ligand)
Kd [7]: 34 µM
Kd [8]: 0.55 µM
Kd [10]: 9.8 µM
Kd [9]: 0.19 µM

Substance: IL-21_N51P (from UniProt Q9HBE4 32-152) (ligand)
Kd [7]: 8.5 µM
Kd [8]: 0.024 µM
Kd [10]: 0.16 µM
Kd [9]: 0.047 µM

Substance: IL-21_N54H (from UniProt Q9HBE4 32-152) (ligand)
Kd [1]: 0.02 µM
Kd [2]: 0.077 µM
Kd [3]: 0.027 µM

Substance: IL-21_R34W (from UniProt Q9HBE4 32-152) (ligand)
Kd [7]: 20 µM
Kd [8]: 0.096 µM
Kd [9]: 0.19 µM

Substance: IL-21_P62H (from UniProt Q9HBE4 32-152) (ligand)
Kd [1]: 0.021 µM
Kd [2]: 0.16 µM
Kd [3]: 0.11 µM
Kd [4]: 5.1 µM

Substance: IL-21_S74A (from UniProt Q9HBE4 32-152) (ligand)
Kd [2]: 0.14 µM
Kd [3]: 0.16 µM
Kd [4]: 4.4 µM

Substance: IL-21_human_R105K Fc fusion protein (from UniProt Q9HBE4 30-162)
Kd [5]: 0.0413 µM
Kd [6]: 0.0167 µM

Substance: IL-21_human_I37R Fc fusion protein (from UniProt Q9HBE4 30-162)
Kd [5]: 0.0351 µM

Substance: IL-21_R34E (from UniProt Q9HBE4 32-152) (ligand)
Kd [3]: 0.21 µM

Substance: IL-21_human_I95H Fc fusion protein (from UniProt Q9HBE4 30-162)
Kd [5]: 0.849 µM
Kd [6]: 0.016 µM

Substance: IL-21_L120Y (from UniProt Q9HBE4 32-152) (ligand)
Kd [13]: 0.058 µM

Substance: IL-21_W73L (from UniProt Q9HBE4 32-152) (ligand)
Kd [7]: 33 µM
Kd [8]: 0.2 µM
Kd [10]: 5.2 µM

Substance: IL-21_human_D33T Fc fusion protein (from UniProt Q9HBE4 30-162)
Kd [5]: 0.0374 µM
Kd [6]: 0.0148 µM

Substance: IL-21_P62T (from UniProt Q9HBE4 32-152) (ligand)
Kd [3]: 0.046 µM
Kd [4]: 4.5 µM

Substance: IL-21_L61I (from UniProt Q9HBE4 32-152) (ligand)
Kd [8]: 0.037 µM
Kd [10]: 0.37 µM
Kd [9]: 0.083 µM

Substance: IL-21_human_I37V Fc fusion protein (from UniProt Q9HBE4 30-162)
Kd [5]: 0.00527 µM
Kd [6]: 0.00302 µM

Substance: IL-21_A87N (from UniProt Q9HBE4 32-152) (ligand)
Kd [1]: 0.025 µM
Kd [2]: 0.11 µM
Kd [3]: 0.12 µM

Substance: IL-21_human_I43M Fc fusion protein (from UniProt Q9HBE4 30-162)
Kd [5]: 0.00904 µM
Kd [6]: 0.00702 µM

Substance: IL-21_W73A (from UniProt Q9HBE4 32-152) (ligand)
Kd [7]: 26 µM
Kd [8]: 0.36 µM
Kd [10]: 3.5 µM
Kd [9]: 0.17 µM

Substance: IL-21_K85S (from UniProt Q9HBE4 32-152) (ligand)
Kd [11]: 0.15 µM

Substance: IL-21_L120K (from UniProt Q9HBE4 32-152) (ligand)
Kd [8]: 0.025 µM
Kd [10]: 0.047 µM
Kd [9]: 0.046 µM

Substance: IL-21_I37Q (from UniProt Q9HBE4 32-152) (ligand)
Kd [8]: 0.035 µM
Kd [10]: 0.25 µM
Kd [9]: 0.14 µM

Next, values leading:

Kd [1]: 0.024 µM
Kd [2]: 0.077 µM
Kd [3]: 0.048 µM
Kd [4]: 7.6 µM
Substance: IL-21_N97G (from UniProt Q9HBE4 32-152) (ligand)

Kd [1]: 0.021 µM
Kd [2]: 0.077 µM
Kd [3]: 0.075 µM
Substance: IL-21_F76M (from UniProt Q9HBE4 32-152) (ligand)

Kd [7]: 16 µM
Kd [8]: 0.11 µM
Kd [10]: 1 µM
Kd [9]: 0.14 µM
Substance: IL-21_T89L (from UniProt Q9HBE4 32-152) (ligand)

Kd [1]: 0.026 µM
Kd [2]: 0.14 µM
Kd [3]: 0.025 µM
Kd [4]: 3 µM
Substance: IL-21_Q41S (from UniProt Q9HBE4 32-152) (ligand)

Kd [7]: 21 µM
Kd [8]: 0.043 µM
Kd [10]: 0.17 µM
Kd [9]: 0.14 µM
Substance: IL-21_N88K (from UniProt Q9HBE4 32-152) (ligand)

Kd [9]: 0.083 µM
Substance: IL-21_D33A (from UniProt Q9HBE4 32-152) (ligand)

Kd [5]: 0.246 µM
Kd [6]: 0.0896 µM
Substance: IL-21_human_R38Q Fc fusion protein (from UniProt Q9HBE4 30-162)

Kd [1]: 0.026 µM
Kd [2]: 0.076 µM
Kd [3]: 0.027 µM
Substance: IL-21_F60R (from UniProt Q9HBE4 32-152) (ligand)

Kd [7]: 14 µM
Kd [8]: 0.016 µM
Kd [10]: 0.05 µM
Kd [9]: 0.05 µM
Substance: IL-21_V57R (from UniProt Q9HBE4 32-152) (ligand)

Kd [7]: 14 µM
Kd [10]: 0.19 µM
Kd [9]: 0.17 µM
Substance: IL-21_S77K (from UniProt Q9HBE4 32-152) (ligand)

Kd [5]: 0.0126 µM
Kd [6]: 0.00194 µM
Substance: IL-21_human_I45A Fc fusion protein (from UniProt Q9HBE4 30-162)

Kd [7]: 14 µM
Kd [8]: 0.027 µM
Kd [10]: 0.12 µM
Kd [9]: 0.045 µM
Substance: IL-21_D33N (from UniProt Q9HBE4 32-152) (ligand)

Kd [1]: 0.035 µM
Kd [2]: 0.36 µM
Kd [3]: 0.099 µM
Kd [4]: 8.1 µM
Substance: IL-21_P108L (from UniProt Q9HBE4 32-152) (ligand)

Kd [1]: 0.021 µM
Kd [3]: 0.21 µM
Kd [4]: 3.3 µM
Substance: IL-21_A63T (from UniProt Q9HBE4 32-152) (ligand)

Kd [7]: 63 µM
Kd [8]: 0.39 µM
Kd [10]: 55 µM
Kd [9]: 0.089 µM
Substance: IL-21_Y52Q (from UniProt Q9HBE4 32-152) (ligand)

Kd [1]: 0.045 µM
Kd [2]: 0.35 µM
Kd [3]: 0.084 µM
Kd [4]: 6.7 µM
Substance: IL-21_L56M (from UniProt Q9HBE4 32-152) (ligand)

Kd [8]: 0.14 µM
Kd [10]: 0.53 µM
Kd [9]: 0.34 µM
Substance: IL-21_E72S (from UniProt Q9HBE4 32-152) (ligand)

Kd [2]: 0.11 µM
Kd [3]: 0.052 µM
Substance: IL-21_S86I (from UniProt Q9HBE4 32-152) (ligand)

Kd [2]: 0.34 µM
Kd [3]: 0.19 µM
Kd [4]: 7.7 µM
Substance: IL-21_F60I (from UniProt Q9HBE4 32-152) (ligand)

Kd [5]: 0.00646 µM
Kd [6]: 0.00245 µM
Substance: IL-21_human_I148S Fc fusion protein (from UniProt Q9HBE4 30-162)

Kd [5]: 0.189 µM
Kd [6]: 0.0879 µM
Substance: IL-21_human_R38M Fc fusion protein (from UniProt Q9HBE4 30-162)

Kd [7]: 32 µM
Kd [10]: 48 µM
Kd [9]: 0.41 µM
Substance: IL-21_S74N (from UniProt Q9HBE4 32-152) (ligand)

Kd [1]: 0.037 µM
Kd [3]: 0.15 µM
Kd [4]: 7.2 µM
Substance: IL-21_E93G (from UniProt Q9HBE4 32-152) (ligand)

Kd [7]: 10 µM
Kd [9]: 0.2 µM
Substance: IL-21_R34H (from UniProt Q9HBE4 32-152) (ligand)

Kd [2]: 0.19 µM
Kd [3]: 0.062 µM
Kd [4]: 3 µM
Substance: IL-21_I96V (from UniProt Q9HBE4 32-152) (ligand)

Kd [10]: 0.082 µM
Kd [9]: 0.027 µM
Substance: IL-21_D33S (from UniProt Q9HBE4 32-152) (ligand)

Kd [12]: 0.45 µM
Substance: IL-21_S142D (from UniProt Q9HBE4 32-152) (ligand)
